Source: patent US20080171343A1 (UNIVERSITY OF MANCHESTER, published 2008)

Key:
deglycosylated FMOD = biological target: T1, deglycosylated FMOD (bovine, UniProt P13605 19-376, N-linked oligosaccharides (including keratan sulphate) removed with N-glycosidase F); experiment: microtitre plate assay, deglycosylated against untreated FMOD coated
T1 construct: The same polypeptide as FMOD, without its N-linked glycans; also called N-glycosidase F-treated FMOD
T1 sequence (looked up): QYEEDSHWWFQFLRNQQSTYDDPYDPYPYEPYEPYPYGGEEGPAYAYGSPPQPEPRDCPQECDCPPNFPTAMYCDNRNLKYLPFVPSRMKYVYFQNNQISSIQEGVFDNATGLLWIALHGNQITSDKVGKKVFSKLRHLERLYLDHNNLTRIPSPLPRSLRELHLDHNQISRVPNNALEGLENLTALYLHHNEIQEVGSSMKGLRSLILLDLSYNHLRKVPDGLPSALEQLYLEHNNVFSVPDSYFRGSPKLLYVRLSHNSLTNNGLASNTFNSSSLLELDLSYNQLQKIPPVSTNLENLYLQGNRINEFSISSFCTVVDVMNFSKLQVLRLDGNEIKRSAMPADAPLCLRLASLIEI

C-reactive protein = biological target: T2, C-reactive protein (UniProt P02741 19-224); experiment: plate assay: CRP coated on microtitre wells (10 ug/ml), unlabelled protein in fluid phase, detection with goat polyclonal anti-FH antibody and HRP secondary, A490, background subtracted
T2 construct: Bought; Coated on microtitre plates at 10 ug/ml; also called CRP; recombinant CRP
T2 sequence (looked up): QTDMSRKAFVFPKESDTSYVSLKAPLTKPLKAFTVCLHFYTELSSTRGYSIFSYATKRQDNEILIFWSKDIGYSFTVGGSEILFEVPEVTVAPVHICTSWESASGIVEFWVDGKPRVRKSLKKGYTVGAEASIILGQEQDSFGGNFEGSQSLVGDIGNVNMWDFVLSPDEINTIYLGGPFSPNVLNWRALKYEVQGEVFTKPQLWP
Procedure: CRP or FMOD was coated overnight at 4° C. onto microtiter plates (Maxisorp, Nunc) at a concentration of 10 μg/ml in 75 mM sodium carbonate buffer, pH 9.6. Wells treated only with coating buffer or 1% (w/v) BSA (Sigma) in coating buffer (for the assays involving FMOD) were used as negative controls. Between each step the wells were washed extensively with 50 mM Tris-HCl, 150 mM NaCl, 0.1% (v/v) Tween 20, pH 7.5. All wells were blocked with 1% (w/v) BSA (Sigma) in phosphate buffered saline (Invitrogen) for 1 hour at 37° C. FHCCP6-8(H384) and FHCCP6-8(Y384) were added at varrying concentrations in the binding buffer (50 mM HEPES, 100 mM NaCl, 2 mM CaCl₂, pH 7.4); full length FH served as a positive control. In the experiments with FMOD, 50 μg/ml BSA was included in the binding buffer. The amount of bound protein was assessed using a goat polyclonal anti-FH antibody (Quidel, Cat # A312) followed by HRP-labeled anti-goat secondary antibodies (Dako) and the OPD development kit (Dako). Detection of biotinylated protein was performed using a StreptABComplex/HRP-kit from Dako, and in both cases the absorbance at 490 nm was measured to quantify protein binding.

fibromodulin = biological target: T3, fibromodulin (bovine, UniProt P13605 19-376, glycosylated (N-linked oligosaccharides including keratan sulphate), as isolated); experiment: plate assay: FMOD coated on microtitre wells at 10 ug/ml, biotinylated protein in fluid phase, detection with streptavidin peroxidase kit, A490, background subtracted
T3 construct: Isolated from tissue; coated on microtitre plates at 10 ug/ml; also called FMOD; untreated (glycosylated) FMOD
T3 sequence (looked up): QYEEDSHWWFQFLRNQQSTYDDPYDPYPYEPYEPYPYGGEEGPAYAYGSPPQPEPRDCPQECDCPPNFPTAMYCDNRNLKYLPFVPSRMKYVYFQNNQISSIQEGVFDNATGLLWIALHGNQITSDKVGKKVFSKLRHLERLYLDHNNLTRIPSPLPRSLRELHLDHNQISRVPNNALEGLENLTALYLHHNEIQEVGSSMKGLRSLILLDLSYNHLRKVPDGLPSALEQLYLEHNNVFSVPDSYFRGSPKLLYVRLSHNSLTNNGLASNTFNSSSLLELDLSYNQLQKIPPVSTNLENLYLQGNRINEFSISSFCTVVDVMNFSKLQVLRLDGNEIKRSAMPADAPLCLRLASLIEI
Procedure: FIG. 12: Binding of FHCCP6-8(H384), FHCCP6-8(Y384) and full length FH to FMOD. A. FMOD was coated in microtitre plate wells at a concentration of 10 μg/ml. BSA was used as the negative coating control. FHCCP6-8(H384) and FHCCP6-8(Y384) recombinant proteins or full length FH were incubated in fluid phase and bound protein was detected with a specific polyclonal antibody. B. FMOD was coated in microtitre plate wells as described for A. Biotinylated versions of FHCCP6-8(H384) and FHCCP6-8(Y384) were incubated in the wells and bound protein was detected with a streptavidin peroxidase kit. C. Untreated (glycosylated) and N-glycosidase F-treated FMOD were assessed for binding full length FH in a microtitre plate based binding assay. Bound protein was detected with a specific polyclonal antibody. […]
CRP or FMOD was coated overnight at 4° C. onto microtiter plates (Maxisorp, Nunc) at a concentration of 10 μg/ml in 75 mM sodium carbonate buffer, pH 9.6. […] The amount of bound protein was assessed using a goat polyclonal anti-FH antibody (Quidel, Cat # A312) followed by HRP-labeled anti-goat secondary antibodies (Dako) and the OPD development kit (Dako). Detection of biotinylated protein was performed using a StreptABComplex/HRP-kit from Dako, and in both cases the absorbance at 490 nm was measured to quantify protein binding.

B1: FHCCP6-8(Y384) (other)
chain: GTLKPCDYPDIKHGGLYHENMRRPYFPVAVGKYYSYYCDEHFETPSGSYWDHIHCTQDGWSPAVPCLRKCYFPYLENGYNQNYGRKFVQGKSIDVACHPGYALPKAQTTVTCMENGWSPTPRCIRVKTCSKSSIDIENGFISESQYTYALKEKAKYQCKLGYVTADGETSGSITCGKDGWSAQPTCI
modifications: in some assays biotinylated with EZlink N-hydroxysuccinimide-LC Biotin (sites not given)
notes: Made by site-directed mutagenesis (H384Y) of FHCCP6-8(H384); also called FHCCP68 (Y384 allotype); Y384 variant
For B1, the binding result (deglycosylated FMOD) was “binds”, the “EC50 (read off the curve)” value (C-reactive protein) was about 1 µg/mL and the binding result (fibromodulin) was “binds”.

B2: FHCCP6-8(H384) (other)
chain: GTLKPCDYPDIKHGGLYHENMRRPYFPVAVGKYYSYYCDEHFETPSGSYWDHIHCTQDGWSPAVPCLRKCYFPYLENGYNQNHGRKFVQGKSIDVACHPGYALPKAQTTVTCMENGWSPTPRCIRVKTCSKSSIDIENGFISESQYTYALKEKAKYQCKLGYVTADGETSGSITCGKDGWSAQPTCI
modifications: in some assays biotinylated with EZlink N-hydroxysuccinimide-LC Biotin (sites not given)
notes: Used unlabelled (detected with a goat polyclonal anti-FH antibody) or biotinylated; also called FHCCP68 (H384 allotype); H384 variant
B2: binds (deglycosylated FMOD); binds (fibromodulin).
